Paper PMC5666746

Target: recombinant extra-cellular domain sequence of DR5 (sDR5) protein (human)
Test: BLI; ForteBio Octet QKe; biotinylated sDR5 loaded on streptavidin sensors at 1 μM; scFv at two-fold serial dilutions 93.75-6000 nM in SD Buffer (PBS, pH 7.4, 0.02% Tween 20, 0.1% BSA); association 5 min, dissociation 10 min

recombinant extra-cellular domain sequence of DR5 (sDR5) protein (human), sequence (O14763 whole entry, the tested form may be a part): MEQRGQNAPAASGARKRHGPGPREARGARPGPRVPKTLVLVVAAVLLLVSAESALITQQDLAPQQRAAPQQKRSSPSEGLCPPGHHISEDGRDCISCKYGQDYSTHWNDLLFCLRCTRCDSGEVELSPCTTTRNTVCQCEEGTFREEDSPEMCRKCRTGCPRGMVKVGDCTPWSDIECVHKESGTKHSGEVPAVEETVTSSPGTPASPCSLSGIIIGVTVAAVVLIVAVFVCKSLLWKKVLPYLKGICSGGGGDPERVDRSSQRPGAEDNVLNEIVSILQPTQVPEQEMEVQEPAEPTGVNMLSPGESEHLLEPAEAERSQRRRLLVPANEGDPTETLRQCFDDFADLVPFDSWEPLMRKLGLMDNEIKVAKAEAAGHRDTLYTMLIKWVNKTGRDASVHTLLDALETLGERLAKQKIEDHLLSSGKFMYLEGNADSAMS

B1: TR2-3, fully human agonistic anti-DR5 single chain fragment variable (scFv) antibody (scFv)
scFv: QVQLQESGPGLVKPSGTLSLTCAVSGGSISSSNWWSWVRQPPGKGLEWIGEIYHSGSTNYNPSLKSRVTISVDKSKNQFSLKLSSVTAADTAVYYCARGAAAGTANDAFDIWGQGTMVTVSSGGGGSGGGGSGGGGSETTLTQSPGILSLSPGERASLSCRASQSVPHNYLAWYQQKPGQAPRLLIYGASNRATGIPDRFSGSGSETDFTLTVTRLAPEDFAVYYCQQYGRSLTFGGGTKVEIKR
Kd: 126 nM | koff: 0.00144 s⁻¹ | kon: 11500 M⁻¹ s⁻¹
